Tested on: MS2 coat protein
Test: apparent KD of MS2 coat protein; designed switch direction (-1 OFF switch, 1 ON switch): -1; higher = weaker reporter binding
Summary of the method: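 The buffer was Tris-HCl pH 7.5 with KCl, MgCl2, BSA, DTT, tRNA and Tween-20. In it, SNAP-549-labelled MS2 coat protein was titrated in doubling steps from 0.7 or 1.5 nM to 3 µM over chip-bound RNA switches transcribed by stalled E. coli RNA polymerase on Illumina chips. Apparent KD is the per-design median over clusters of curve fits to normalised fluorescence.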

[1] = input ligand: microRNA oligo, concentration not stated
[2] = Eterna round: R95, input ligand: microRNA oligo, concentration not stated

| Sequence | apparent KD of MS2 coat protein (input ligand: FMN 200 uM) | apparent KD of MS2 coat protein [1] | apparent KD of MS2 coat protein (input ligand: none) | apparent KD of MS2 coat protein [2] | apparent KD of MS2 coat protein (Eterna round: R95, input ligand: FMN 200 uM) | apparent KD of MS2 coat protein (Eterna round: R95, input ligand: none) |
| --- | --- | --- | --- | --- | --- | --- |
| AUCAGCUCGUGAGGAUAUACAUGCGUGCUUCGGCACGUAUGAUAGAUCACAUGAGGAUCACCCAUGUAGAAGGUACGAGCUGAU [ENG2/4-C3] (Eterna round: R96, puzzle: Exclusion NG 2) | 12.6 nM | 10.7 nM | 12.6 nM |  |  |  |
| UUUCCCUGUGUGAGGAUAUACUUGUUUGGGUUUUUGUAGAAGGCACAUGAGGAUCACCCAUGUACUCUGUCGUG [JR_BME4_Sub021] (puzzle: Brourd's mod of Exclusion 4) |  |  |  | 21.1 nM |  |  |
| UUCUUACGAGGAUAUCGAUUGUGGUACAUGAGGAUCACCCAUGUAUGUGAUAUUGUAUUUCGAGAAGGCGUUCAGU [JR_E5_Sub059] (puzzle: Exclusion 5) |  |  |  | 25.2 nM |  |  |
| CACUCACAUGAGGAUCACCCAUGUCAGGAUAUCUCAGUGCAUCCACACGGACGCAUCAAGAGAAGGGACAAAAC [Vinxlusion 1 - Jieux - Exclusion 1] (Eterna round: R97, puzzle: Exclusion 1) | 40.2 nM |  | 36.6 nM |  |  |  |
| CCAGCAAAUGUGAGGAUAUGCUGGUCCUUGGAUCAGCAGAAGGCACAUGAGGAUCACCCAUGUGGGAUAGCUGG [Eli bmx4 4.59] (Eterna round: R97, puzzle: Brourd's mod of Exclusion 4) | 412 nM |  | 194 nM |  |  |  |
| AUUGAUGUUGAGGAUAUGCUUAUAUUUAUACUUGCAGAAGGCGAUACAUGAGGAUCACCCAUGUUCAUGGAAGU [JR_E6_Sub092] (puzzle: Exclusion 6) |  |  |  | 26.2 nM |  |  |
| UGUAACCUAGGAUAUACAUGAGGAUCACCCAUGUAAUGUAGUAUAGUGUGUGUAAGGUGUAGAAGGAGGAAUGU [LRO-Excl05-23-Smart Aleck] (Eterna round: R97, puzzle: Exclusion 3) | 76.2 nM |  | 52.6 nM |  |  |  |
| GCGUACUGAGGAUAUACAUGAGGAUCACCCAUGUGACACAGCAUUUAUUGAUAAAUUUGUAGAAGGCAGUAGGC [JR_Ex3_Sub059] (Eterna round: R97, puzzle: Exclusion 3) | 144 nM |  | 25 nM |  |  |  |
| AAAAAUCGAGGAUAUACAUGAGGAUCACCCAUGUGGGACCAAGAAAACACAAAAGAAAGUAGAAGGCGAUAAAA [Ex 3 May 23] (Eterna round: R96, puzzle: Exclusion 3) | 110 nM | 25.8 nM | 31.7 nM |  |  |  |
| UUUUUACAUGAAGGAUAUACUUAACAUGAGGAUCACCCAUGUGGUGUUGUGAGUGAGUGAGUUUAGUAGAAGGUCAAUUAUUUU [JMF's solution 22] (Eterna round: R96, puzzle: Exclusion NG 2) | 556 nM | 241 nM | 314 nM |  |  |  |
| CCAGCAAUUGUCAGGAUAUGCUGGUCCUUGGAUCAGCAGAAGGGACAUGAGGAUCACCCAUGUGGAAAAGCUGG [Eli bmx4 4.64] (Eterna round: R97, puzzle: Brourd's mod of Exclusion 4) | 231 nM |  | 54.7 nM |  |  |  |
| UUUAACAAGCCAGAUCCUCACAUGAGGAUCACCCAUGUGCUCGUCUGUUUUUGUACUAUCACGUUUGUGAUAGUGUU [Level Boss var2-08] (puzzle: Sensor v3, turn-off variant 1) |  |  |  | 16.2 nM | 220 nM | 295 nM |
| AGCUGUGGCCGAGGAUAUCUGUUCCAUAUAACCGACGUAUAGUCGGACAUGAGGAUCACCCAUGUAGAGAAGGCGGUCUCAGCA [Eli eng2 - 000] (Eterna round: R96, puzzle: Exclusion NG 2) | 39.2 nM | 23.3 nM | 25.4 nM |  |  |  |
| GAAAAUGUAGAGGAUAUUUCAGAUCAAGACUGCAAAGAAGGCUGCACAUGAGGAUCACCCAUGUGGUCAACAAA [Mod of Quesina 15 - Jieux - Exclusion 6] (Eterna round: R97, puzzle: Exclusion 6) | 79.1 nM |  | 22.3 nM |  |  |  |
| GCAGCAUAGUUUACUAACUGUUACAUGAGGAUCACCCAUGUUCAGGAUAUGGUCUGGAUUACAGGCCAGAAGGGAACAAGCUGC [Eli exng3 - 026] (Eterna round: R96, puzzle: Exclusion NG 3) | 7.64 nM | 8.42 nM | 11.3 nM |  |  |  |
| UUUUAACAUGAGGAUCACCCAUGUGAGGAUAUCGAAAUUUAUAUUUAUAUUUAUAUAACGAGAAGGCACAUUUU [JMF 95] (puzzle: Exclusion 1) |  |  |  | 68.3 nM |  |  |
| GAACUGAAGCAUAGCUUUAGUCGUACAUGAGGAUCACCCAUGUAGGAUAUGGUAGGCAUAGCUUACUAGAAGGAUAGAGUGAUC [Mat - Exclusion NG 3 - Mod of JL - D73] (Eterna round: R96, puzzle: Exclusion NG 3) | 595 nM | 411 nM | 243 nM |  |  |  |
| AUUGUAUAGGAAGGAUAUAGAAUAUUAUUUUAACAUGAGGAUCACCCAUGUAACCUUAUGUGUAGCUAGAAGGUCCGUUUAUUA [Title] (Eterna round: R96, puzzle: Exclusion NG 2) |  | 96.5 nM |  |  |  |  |

Reference: the supplement of paper PMC9170038
